What was measured:
E. coli β clamp = E. coli β clamp (Escherichia coli, UniProt P0A988); conditions: E. coli β labeled with Oregon Green or rhodamine-labeled peptide; Kd only in FIG. 1A
Description: The assays corresponding to the data in the Table of FIG. 1A, use E. coli β labeled with an Oregon Green fluorophore. Peptides of various polymerases were titrated into the labeled β, and the Kd values were obtained from the resulting fluorescent intensity changes. All other plots utilize rhodamine-labeled polymerase peptide from E. coli α (FIG. 1A), S. pyogenes Pol C (FIG. 1B), S. aureus Pol C (FIG. 1C). β clamp from the organisms indicated are titrated into the fluorescent peptide.
A rhodamine-labeled 20 mer peptide corresponds to the sequence of the C-terminal 20 residues of E. coli Pol III α subunit. […] A plot of the fluorescence change with beta concentration provides a Kd value for the interaction between these molecules (FIG. 1A).

[1] = biological target: E. coli DNA polymerase III replicase (Escherichia coli, UniProt P0A988); conditions: primed M13mp18 ssDNA coated with SSB
Method: Assays were performed using primed M13mp18 ssDNA coated with SSB as substrate. Each reaction was 25 μl and contained 72 ng primed M13mp18 ssDNA, 1 μg SSB, 0.1 mM MgCl2, 20 mM TrisHCl (pH 7.5), 0.1 mM EDTA, 5 mM DTT, 40 μg/ml BSA, 4% glycerol, […], 2 mM ATP, 60 μM each of dCTP, dATP, dGTP and 20 μM α^32-P dTTP. Replicases consisted of the following for each E. coli, S. pyogenes, and S. aureus: 50 ng Pol III core (E. coli) or Pol C (S. pyogenes and S. aureus), 200 ng τ, 20 ng δδ′ and 40 ng β. Peptides, when present, were added to the indicated concentration. Reactions were assembled on ice in the absence of the polymerase, then shifted to 37° C. for 3 min before initiating synthesis by addition of the polymerase. Reactions were incubated a further 3 min prior to quenching and quantitation of synthesis.

S. pyogenes β = assay: Binding of rhodamine-labeled polymerase C-terminal peptides to β clamp; set-up: species or system Streptococcus pyogenes; conditions: β titrated in
Method: This assay has also been examined using Streptococcus pyogenes β and rhodamine labeled peptides corresponding to C-terminal residues of Streptococcus pyogenes Pol C and E. coli Pol III. […] The C-terminal peptide corresponding to Staphylococcus aureus Pol C was also tested for binding to these β clamps (FIG. 1C).

[2] = biological target: T1, S. aureus Pol C holoenzyme (Staphylococcus aureus, UniProt P0A024); assay: Replicase DNA synthesis assay on primed M13mp18 ssDNA, with peptides; type: biochemical; conditions: primed M13mp18 ssDNA coated with SSB
T1 construct: made in house
T1 sequence (P0A024 1-377): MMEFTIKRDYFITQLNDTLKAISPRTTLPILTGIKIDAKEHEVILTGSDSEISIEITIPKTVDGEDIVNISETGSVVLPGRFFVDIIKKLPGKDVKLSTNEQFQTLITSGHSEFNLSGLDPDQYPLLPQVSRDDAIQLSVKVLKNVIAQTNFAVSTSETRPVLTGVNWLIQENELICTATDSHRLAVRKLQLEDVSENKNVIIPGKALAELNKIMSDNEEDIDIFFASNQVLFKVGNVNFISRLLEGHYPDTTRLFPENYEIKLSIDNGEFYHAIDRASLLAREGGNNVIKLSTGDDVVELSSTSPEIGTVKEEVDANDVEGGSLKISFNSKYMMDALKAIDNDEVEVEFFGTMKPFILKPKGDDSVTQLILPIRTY
Method: (§1) Peptides, when present, were added to the indicated concentration.

[3] = test system: S. pyogenes PolC holoenzyme; assay: as above; type: biochemical, Streptococcus pyogenes; conditions: primed M13mp18 ssDNA coated with SSB
Method: as §1

E. coli β clamp, sequence (P0A988 whole entry): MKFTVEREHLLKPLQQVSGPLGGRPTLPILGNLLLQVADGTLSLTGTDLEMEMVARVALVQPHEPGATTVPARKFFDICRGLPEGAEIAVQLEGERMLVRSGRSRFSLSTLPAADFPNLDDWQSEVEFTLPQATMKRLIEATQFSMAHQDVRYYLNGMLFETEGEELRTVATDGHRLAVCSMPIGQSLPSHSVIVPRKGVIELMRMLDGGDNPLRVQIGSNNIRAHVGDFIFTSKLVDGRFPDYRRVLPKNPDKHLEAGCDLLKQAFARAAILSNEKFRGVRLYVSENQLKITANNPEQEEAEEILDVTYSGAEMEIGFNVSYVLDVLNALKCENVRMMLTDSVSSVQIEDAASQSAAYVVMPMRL
E. coli DNA polymerase III replicase, sequence (P0A988 whole entry): as above

| Substance | binding of peptide to E. coli β clamp (E. coli β clamp) | inhibition of DNA synthesis by E. coli DNA polymerase III replicase [1] | binding of peptide to S. pyogenes β (S. pyogenes β) | inhibition of DNA synthesis by S. aureus Pol C holoenzyme [2] | inhibition of DNA synthesis by S. pyogenes PolC holoenzyme [3] |
| --- | --- | --- | --- | --- | --- |
| S. pyogenes Pol C peptide: C-terminal residues of Streptococcus pyogenes Pol C; DEMGILGNMPEDNQLSLFDDFF (SEQ ID NO: 15) (Streptococcus pyogenes) | binds | inhibit DNA synthesis | bound | inhibit DNA synthesis | inhibit DNA synthesis |
| S. aureus Pol C peptide: C-terminal peptide of Staphylococcus aureus Pol C; DELGSLPNLPDKAQLSIFDM (SEQ ID NO: 13) (listed as Staphylococcus aureus) | binds | inhibit DNA synthesis | bound | inhibit DNA synthesis | inhibit DNA synthesis |
